Test results from patent US20250213627A1 (BAYLOR COLLEGE OF MEDICINE, published 2025).

Columns and labels:
[1] = target: Kv1.3 potassium channel (species not stated for this experiment); test: cell-based or functional assay
[2] = target: mKv1.3 channel stably expressed in mouse L929 fibroblasts (mouse, UniProt P16390 1-528); test: cell-based or functional assay
Sequence of mKv1.3 channel stably expressed in mouse L929 fibroblasts (P16390 whole entry): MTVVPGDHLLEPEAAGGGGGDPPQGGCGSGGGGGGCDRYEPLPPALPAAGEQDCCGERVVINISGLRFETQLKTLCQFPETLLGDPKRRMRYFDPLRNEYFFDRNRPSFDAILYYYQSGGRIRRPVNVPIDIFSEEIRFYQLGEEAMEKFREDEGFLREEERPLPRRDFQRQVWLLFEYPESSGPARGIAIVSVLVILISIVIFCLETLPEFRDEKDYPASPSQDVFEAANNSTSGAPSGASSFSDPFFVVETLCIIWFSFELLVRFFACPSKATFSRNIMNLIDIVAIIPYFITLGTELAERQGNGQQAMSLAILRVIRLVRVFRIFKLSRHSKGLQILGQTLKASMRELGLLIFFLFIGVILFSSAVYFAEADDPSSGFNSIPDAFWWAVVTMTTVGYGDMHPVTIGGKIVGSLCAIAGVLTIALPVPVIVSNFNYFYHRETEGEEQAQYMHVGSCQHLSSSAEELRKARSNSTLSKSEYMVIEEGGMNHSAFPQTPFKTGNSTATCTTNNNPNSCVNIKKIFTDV

RSCIDTIPKSRCTAFKCKHSIKYRLSFCRKTCGTCA (3 disulfide bonds (oxidatively folded synthetic peptide)) [synthetic ShK-235]
IC50 of block of Kv1.3 channel function (whole-cell patch-clamp) [1]: 62 pM
IC50 of block of mKv1.3 currents (whole-cell patch-clamp, L929 cells) [2]: 69.3 pM
